Earlier results on one substance are cited in article PMC3159772.

One data set addresses NTS1 (Homo sapiens) (UniProt P30989).
In the next data set the target is NTS2 (Homo sapiens) (UniProt O95665).
UniProt O95665, sequence (O95665 whole entry): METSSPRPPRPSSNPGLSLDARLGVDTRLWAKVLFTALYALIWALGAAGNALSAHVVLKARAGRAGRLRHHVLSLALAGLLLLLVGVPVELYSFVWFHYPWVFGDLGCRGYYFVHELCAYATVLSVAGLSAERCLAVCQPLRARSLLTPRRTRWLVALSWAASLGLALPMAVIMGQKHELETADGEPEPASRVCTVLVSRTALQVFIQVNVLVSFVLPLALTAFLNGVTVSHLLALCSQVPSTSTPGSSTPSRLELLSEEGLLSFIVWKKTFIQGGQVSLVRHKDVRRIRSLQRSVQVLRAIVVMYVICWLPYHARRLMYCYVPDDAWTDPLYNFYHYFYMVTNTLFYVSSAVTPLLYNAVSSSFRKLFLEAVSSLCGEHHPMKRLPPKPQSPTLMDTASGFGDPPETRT

UniProt P30989, sequence (P30989 whole entry): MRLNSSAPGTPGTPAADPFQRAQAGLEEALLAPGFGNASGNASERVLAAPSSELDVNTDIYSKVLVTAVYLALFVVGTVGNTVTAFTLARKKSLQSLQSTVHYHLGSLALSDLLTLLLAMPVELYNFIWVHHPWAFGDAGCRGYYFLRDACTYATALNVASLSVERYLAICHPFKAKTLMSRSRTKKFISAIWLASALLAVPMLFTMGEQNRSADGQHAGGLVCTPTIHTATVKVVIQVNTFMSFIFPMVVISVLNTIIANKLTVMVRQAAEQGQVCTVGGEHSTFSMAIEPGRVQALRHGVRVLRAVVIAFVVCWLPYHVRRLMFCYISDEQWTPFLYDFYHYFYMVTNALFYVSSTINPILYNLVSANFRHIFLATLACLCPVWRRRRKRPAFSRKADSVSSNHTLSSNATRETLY

The term Kd denotes the concentration at which binding is half-saturated. In the case of NT69L (from UniProt P30990), the Kd with NTS1 (Homo sapiens) was 3.1 nM; with NTS2 (Homo sapiens) it was 2.1 nM.
